Assay results as given in patent US20060193821, “Aptamers to the human IL-12 cytokine family and their use as autoimmune disease therapeutics” (published 2006).

What was measured:
[1] = target: T1, IL-23 (human, p19/p40 heterodimer) (Homo sapiens, UniProt Q9NPF7;P29460 SEQ:20-189,SEQ:23-328); experiment: filter; 1X SHMCK, 1 mM Mg, 1 mM Ca, 0.1 mg/mL tRNA, RT; conditions: tags: R&D Systems, carrier free; label: 5'-32P
Procedure: (§1) Monitoring Progress of rRfY Selection. Dot blot binding assays were performed throughout the selections to monitor the protein binding affinity of the pools. Trace ³²P-labeled RNA was combined with a dilution series of h-IL-23 and incubated at room temperature for 30 minutes in 1×SHMCK (20 mM Hepes, 120 mM NaCl, 5 mM KCl, 1 mM MgCl₂, 1 mM CaCl₂, pH 7.4) plus 0.1 mg/mL tRNA for a final volume of 20 μL. The binding reactions were analyzed by nitrocellulose filtration using a Minifold I dot-blot, 96-well vacuum filtration manifold (Schleicher & Schuell, Keene, N.H.). A three-layer filtration medium was used, consisting (from top to bottom) of Protran nitrocellulose (Schleicher & Schuell), Hybond-P nylon (Amersham Biosciences) and GB002 gel blot paper (Schleicher & Schuell). RNA that is bound to protein is captured on the nitrocellulose filter, whereas the non-protein bound RNA is captured on the nylon filter. The gel blot paper was included simply as a supporting medium for the other filters. Following filtration, the filter layers were separated, dried and exposed on a phosphor screen (Amersham Biosciences, Piscataway, N.J.) and quantified using a Storm 860 Phosphorimager® blot imaging system (Amersham Biosciences).
(§2) When a significant positive ratio of binding of RNA in the presence of h-IL-23 versus in the absence of h-IL-23 was seen, the pools were cloned using a TOPO TA cloning kit (Invitrogen, Carlsbad, Calif.) according to the manufacturer's instructions. For the h-IL-23 and X-IL-23 selections, the Round 8 pool templates were cloned, and 32 individual clones from each selections were assayed in a 1-point dot blot screen (+/−75 nM h-IL-23, as well as a separate screen at +/−75 nM h-IL-12). For the PN-IL-23 selection, the Round 10 pool was cloned and sequenced, and 8 unique clones were assayed for protein binding in a 1-point dot blot screen (+/−200 nM h-IL-23 and a separate screen at +/−200 nM h-IL-12). Subsequently, the Round 10 PN-IL-23 pool was re-cloned for further sequences, as well as the R12 PN-IL-23 pool, and the clones were assayed for protein binding in a 1 point do blot screen (+/−100 nM h-IL-23 or +/−200 nM h-IL-12).

[2] = target: IL-12 (human, p35/p40 heterodimer) (Homo sapiens, UniProt P29459;P29460 SEQ:57-253,SEQ:23-328); experiment: filter; no significant binding; 1X SHMCK, 0.1 mg/mL tRNA; conditions: label: 5'-32P
IL-12 (human, p35/p40 heterodimer), sequence (P29459 23-219, chain 1 of 2): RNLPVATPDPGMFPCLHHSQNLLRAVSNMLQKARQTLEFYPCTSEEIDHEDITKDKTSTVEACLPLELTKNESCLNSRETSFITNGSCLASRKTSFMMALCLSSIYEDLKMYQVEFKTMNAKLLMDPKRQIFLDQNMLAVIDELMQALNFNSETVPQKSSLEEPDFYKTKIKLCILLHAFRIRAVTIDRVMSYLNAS
IL-12 (human, p35/p40 heterodimer), sequence (P29460 23-328, chain 2 of 2): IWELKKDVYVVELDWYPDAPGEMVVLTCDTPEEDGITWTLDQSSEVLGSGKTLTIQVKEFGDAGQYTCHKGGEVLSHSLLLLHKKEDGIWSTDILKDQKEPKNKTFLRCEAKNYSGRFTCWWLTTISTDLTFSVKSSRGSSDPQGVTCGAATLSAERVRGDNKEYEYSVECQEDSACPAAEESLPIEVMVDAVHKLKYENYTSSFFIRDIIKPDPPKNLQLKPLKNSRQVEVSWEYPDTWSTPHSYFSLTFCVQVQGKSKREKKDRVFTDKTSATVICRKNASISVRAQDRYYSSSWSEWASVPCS
Procedure: as §1, §2

[3] = target: T1, IL-23 (human, p19/p40 heterodimer); experiment: filter; 1X PBS, tRNA, ssDNA, BSA, 30 min RT; conditions: tags: R&D Systems, carrier free; label: 32P
[4] = target: T1, IL-23 (human, p19/p40 heterodimer); experiment: filter; no binding; conditions: tags: R&D Systems, carrier free
Excerpt: The fraction aptamer bound vs. [IL-23] was used to calculate the KD by fitting the following equation to the data: Fraction aptamer bound=amplitude*([IL-23]/(KD+[IL-23]))+background binding.
Table 25 below summarizes the minimized sequences and the parent clone from which they were derived, and Table 26 summarizes the binding characterization from direct binding assays (+/−tRNA) and competition binding assays for the minimized constructs tested.

[5] = target: T2, IL-23 (mouse, p19/p40 heterodimer) (Mus musculus, UniProt Q9EQ14;P43432 SEQ:22-196,SEQ:23-335); experiment: cell_activity; TransAM STAT3; conditions: tags: isolated in-house
T2 sequence 1: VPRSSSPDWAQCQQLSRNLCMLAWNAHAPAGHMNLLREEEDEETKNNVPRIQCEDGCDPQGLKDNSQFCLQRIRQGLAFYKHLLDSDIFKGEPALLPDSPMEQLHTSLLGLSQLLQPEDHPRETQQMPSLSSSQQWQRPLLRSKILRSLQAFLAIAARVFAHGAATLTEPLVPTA
T2 sequence 2: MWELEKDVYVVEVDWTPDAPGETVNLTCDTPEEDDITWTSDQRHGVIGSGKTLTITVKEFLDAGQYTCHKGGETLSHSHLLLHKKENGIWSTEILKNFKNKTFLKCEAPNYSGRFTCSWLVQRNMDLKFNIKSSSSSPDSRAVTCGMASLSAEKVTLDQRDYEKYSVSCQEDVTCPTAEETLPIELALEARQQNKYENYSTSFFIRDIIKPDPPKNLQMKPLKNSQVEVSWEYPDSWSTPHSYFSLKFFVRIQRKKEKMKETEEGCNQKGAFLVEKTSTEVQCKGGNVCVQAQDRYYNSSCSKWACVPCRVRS
Procedure: In summary, the cell-based assay was conducted by isolating the peripheral blood mononuclear cells (PBMCs) from whole blood using a Histopaque gradient (Sigma, St. Louis, Mo.). The PBMCs were cultured for 3 to 5 days at 37° C./5% CO₂ in Peripheral Blood Medium (Sigma) which contains PHA, supplemented with IL-2 (100 units/mL) (R&D Systems, Minneapolis, Minn.), to generate PHA Blasts. To test IL-23 aptamers, the PHA Blasts were washed twice with 1×PBS, then serum starved for four hours in RPMI, 0.20% FBS. After serum starvation, approximately 2 million cells were aliquotted into appropriately labeled eppendorf tubes. hIL-23 at a final constant concentration of 3 ng/mL (R&D Systems, Minneapolis, Minn.) was combined with a dilution series of various IL-23 aptamers as described in Example 1, and the cytokine/aptamer mixture was added to the aliquotted cells in a final volume of 100 μl and incubated at 37° C. for 10-12 minutes. The incubation reaction was stopped by adding 1 mL of ice-cold PBS with 1.5 mM Na₃VO₄. Cell lysates were made using the lysis buffer provided by the TransAM™ STAT 3 assay following the manufacturer's instructions. FIG. 20 depicts a flow summary of the protocol used for the cell based assay.
The protocol used was identical to that previously described except mouse IL-23 was used to induce STAT 3 activation in PHA Blasts at a concentration of 30 ng/mL, instead of using human IL-23 at a concentration of 3 ng/mL.

[6] = target: T1, IL-23 (human, p19/p40 heterodimer); experiment: cell_activity; Pathscan pSTAT3; conditions: tags: R&D Systems, carrier free
Procedure: Inhibition of IL-23-induced STAT3 phosphorylation was measured using the Pathscan® Phospho-STAT3 (Tyr705) Sandwich ELISA Kit (Cell Signaling Technology, Beverly, Mass.).
Similar to the TransAM™ Assay method previously described, the Pathscan® Phospho-STAT3 (Tyr705) Sandwich ELISA Kit detects endogenous levels of Phospho-STAT3 (Tyr705) protein by using a STAT3 rabbit monoclonal antibody which has been coated onto the wells of a 96-well plate. After incubation with cell lysates, both nonphospho- and phospho-STAT3 proteins are captured by the coated antibody. A phospho-STAT3 mouse monoclonal antibody is added to detect the captured phospho-STAT3 protein, and an HRP-linked anti-mouse antibody is then used to recognize the bound detection antibody. HRP substrate, TMB, is added to develop color, and the magnitude of optical density for this developed color is proportional to the quantity of phospho-STAT3 protein.
PHA Blasts were isolated and prepared as described above and treated with hIL-23 at a final constant concentration of 6 ng/mL (R&D Systems, Minneapolis, Minn.) to induce STAT3 activation, instead of using 3 ng/mL as previously described with the TransAM™ assay. Clones were screened by using a 6-point […] titration from 0 to 700 nM in 3 fold dilutions in combination with a constant IL-23 concentration of 6 ng/mL of IL-23 (R&D Systems, Minneapolis, Minn.) to induce STAT3 activation, instead of using 3 ng/mL as previously described with the TransAM™ assay. Lysates of treated cells were prepared using the buffers provided by the Pathscan kit, and the assay was run according to the manufacturer's instructions. IC₅₀s for the full length clones were calculated from the dose response curves.

T1 sequence (Q9NPF7 20-189, chain 1 of 2): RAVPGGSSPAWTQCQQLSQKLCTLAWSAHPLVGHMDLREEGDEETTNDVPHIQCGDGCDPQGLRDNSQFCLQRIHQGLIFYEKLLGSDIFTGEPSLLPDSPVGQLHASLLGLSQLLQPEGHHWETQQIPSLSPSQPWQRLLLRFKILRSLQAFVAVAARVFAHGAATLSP
T1 sequence (P29460 23-328, chain 2 of 2): as the sequence (P29460 23-328, chain 2 of 2) above

B1: AMX84-F11 (ssRNA)
RNA: GGGAAAAGCGAAUCAUACACAAGAUGUGCUUGAGUUAAAUCUCAUCGUCCCCGUUUGGGGAUAUGCUCCGCCAGAGACCAACCGAGAA
modifications: 2'-F all C and U (rRfY)
Kd [1]: 16.6 nM | binding result [2]: no binding

B2: dRmY clone SEQ 96 (mixed)
RNA: GGGAGAGGAGAGAACGUUCUACACGGGGUGGGAGGGGCGAGUCGCAUGGAUGCGCUGUCGAUCGAUCGAUCGAUG
modifications: 2'-deoxy A and G, 2'-OMe C and U (dRmY)
Kd [3]: 210 nM

GGCGGUACGGGGGGAGUGGGCUGGG (mixed, deoxy A,G; 2'-OMe C,U) [ARC1170]
binding result [4]: no binding

GGGCACUCAGCCACAGGUGGCUUAAUACUGUAAAGACGUGCCC (ssRNA, 2'-F C,U) [ARC1739 (ARC1628 minimer)]
IC50 [5]: 18 nM

GGCGGUUACGGGGGAUGCGGGUGGG (mixed, 2'-deoxy A and G, 2'-OMe C and U (dRmY)) [ARC981]
binding result ([4]; label: 5'-32P): no binding

GGCAAGGUAAUUGGGAAGUGUGGGCUGGG (mixed, 2'-deoxy A and G, 2'-OMe C and U (dRmY)) [ARC894]
binding result ([4]; label: 5'-32P): no binding

GGGCACUCAGCCACCUUGGGCUUAAUACCUAUCGGAUGUGCCC (ssRNA, 2'-F C,U) [ARC1634 minimer]
IC50 [5]: 26 nM

B3: AMX86-D5 (ssRNA)
RNA: GGGAAAAGCGAAUCAUACACAAGAGAGGUAUGUGGUUUUGCGGAGCAACUCGUGUCAGCGGUCAGCUCCGCCAGAGACCAACCGAGAA
modifications: 2'-F all C and U (rRfY)
Kd [1]: 27.4 nM | binding result [2]: no binding

GGCGGUACGGGGAGUGUGGGUUGGG (mixed, deoxy A,G; 2'-OMe C,U) [ARC1171]
binding result [4]: no binding

B4: dRmY clone SEQ 95 (mixed)
RNA: GGGAGAGGAGAGAACGUUCUACGGGCUACGGGGAUGGAGGGUGGGUCCCAGACGCUGUCGAUCGAUCGAUCGAUG
modifications: 2'-deoxy A and G, 2'-OMe C and U (dRmY)
Kd [3]: 433 nM

B5: dRmY clone SEQ 93 (mixed)
RNA: GGGAGAGGAGAGAACGUUCUACGUAACGGGGUGGGAGGGGCGAACAACUUGACGCUGUCGAUCGAUCGAUCGAUG
modifications: 2'-deoxy A and G, 2'-OMe C and U (dRmY)
Kd [3]: 186 nM

B6: ARC1625 (mixed)
RNA: ACAGGCAAGUAAUUGGGGAGUGCGGGCGGGGUGU
modifications: 2'-OMe C,U and G16,G17,G24,G25,G30,G31; other A,G deoxy; PS 32-33; 3'-idT [2'-OMe C2,C6,U10,U13,U14,G16,G17,U21,C23,G24,G25,C27,G30,G31,U32,U34; other A,G deoxy; PS 32-33 (N = PS linkage, left out); 3'-inverted dT 35]
IC50 [6]: 4 nM

B7: ARC1623 (mixed)
RNA: ACAGGCAAGUAAUUGGGGAGUGCGGGCGGGGUGU
modifications: 2'-OMe C,U and G16,G17,G24,G25,G30,G31; other A,G deoxy; PS 17-18,18-19,19-20,21-22; 3'-idT [2'-OMe C2,C6,U10,U13,U14,G16,G17,U21,C23,G24,G25,C27,G30,G31,U32,U34; other A,G deoxy; PS 17-18,18-19,19-20,21-22 (N = PS linkage, left out); 3'-inverted dT 35]
IC50 [6]: 5 nM

B8: ARC1626 (mixed)
RNA: ACAGGCAAGUAAUUGGGGAGUGCGGGCGGGGUGU
modifications: 2'-OMe C,U and G16,G17,G24,G25,G30,G31; other A,G deoxy; multiple PS; 3'-idT [2'-OMe C2,C6,U10,U13,U14,G16,G17,U21,C23,G24,G25,C27,G30,G31,U32,U34; other A,G deoxy; PS 2-3,3-4,4-5,6-7,7-8,8-9,10-11,11-12,14-15,17-18,18-19,19-20,21-22,25-26,27-28,28-29,32-33 (N = PS linkage, left out); 3'-inverted dT 35]
IC50 [6]: 12 nM

B9: AMX84-B10 (ssRNA)
RNA: GGGAAAAGCGAAUCAUACACAAGAAGUGCUUCAUGCGGCAAACUGCAUGACGUCGAAUAGAUAUGCUCCGCCAGAGACCAACCGAGAA
modifications: 2'-F all C and U (rRfY)
Kd [1]: 21.8 nM | binding result [2]: no binding

B10: AMX84-A10 (ssRNA)
RNA: GGGAAAAGCGAAUCAUACACAAGAAGUUUUUUGUGCUCUGAGUACUCAGCGUCCGUAAGGGAUAUGCUCCGCCAGAGACCAACCGAGAA
modifications: 2'-F all C and U (rRfY)
Kd [1]: 22.3 nM | binding result [2]: no binding

ACAGGCAAGGUAAUUGGGUAGUGAGGGCUGGGUGU (mixed, deoxy A,G; 2'-OMe C,U) [ARC896]
binding result [4]: no binding

B11: AMX86-D6 (ssRNA)
RNA: GGGAAAAGCGAAUCAUACACAAGAUUAGGCGUCGUGACAAUAACUGGUCCACGAGCAUGUCAGUGCUCCGCCAGAGACCAACCGAGAA
modifications: 2'-F all C and U (rRfY)
Kd [1]: 25 nM | binding result [2]: no binding
